For eight molecules, Kd, PP1γ co-precipitated, percent of WT GFP-RRP1B and percent of cells with accumulation results are on record in article PMC9813921 (Cell reports, 2022).

For test [1], the target named is His6-tagged PP1α_(7–330) Q20R (UniProt P62136). The test is described as follows: SPR.
Test [2] concerns the target GFP-RRP1B_(S702D) (human) (UniProt Q14684). Put plainly: co-IP.
The next test concerns the target GFP-RRP1B_(RAxA) (human) (UniProt Q14684). Put plainly: co-IP.
Test [3] concerns the target mCherry-LacRepressor-NLS-PP1γ (UniProt P36873). The test is described as follows: two-hybrid.
For the next test, the target named is His6-tagged PP1γ_(7–308) (UniProt P36873 7-308). Put plainly: ITC. A general note: Isothermal titration calorimetry measures the heat released or taken up as one component is titrated into another.
Test [4] has as its target His6-tagged PP1α_(7–330) Q20R (UniProt P62136 7-330, Q20R). The test is described as follows: SPR. (SPR reads the build-up and loss of mass on a sensor chip optically.)
The next test addresses His6-tagged PP1α_(7–330) (UniProt P62136 7-330). Put plainly: ITC.
For a further test, the target named is His6-tagged PP1γ_(7–323) (UniProt P36873 7-323). Put plainly: ITC.
Sequence of His6-tagged PP1γ_(7–323) (P36873 7-323): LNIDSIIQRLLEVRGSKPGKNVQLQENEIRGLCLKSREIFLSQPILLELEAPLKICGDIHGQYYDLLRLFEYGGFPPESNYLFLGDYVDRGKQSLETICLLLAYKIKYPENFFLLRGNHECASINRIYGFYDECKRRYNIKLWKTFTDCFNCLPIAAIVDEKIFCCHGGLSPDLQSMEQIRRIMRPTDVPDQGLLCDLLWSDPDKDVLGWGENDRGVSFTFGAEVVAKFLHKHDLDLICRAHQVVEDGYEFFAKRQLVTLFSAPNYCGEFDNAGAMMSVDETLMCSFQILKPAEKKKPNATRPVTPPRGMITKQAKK

Sequence of His6-tagged PP1α_(7–330) Q20R (UniProt P62136) (P62136 7-330 Q20R): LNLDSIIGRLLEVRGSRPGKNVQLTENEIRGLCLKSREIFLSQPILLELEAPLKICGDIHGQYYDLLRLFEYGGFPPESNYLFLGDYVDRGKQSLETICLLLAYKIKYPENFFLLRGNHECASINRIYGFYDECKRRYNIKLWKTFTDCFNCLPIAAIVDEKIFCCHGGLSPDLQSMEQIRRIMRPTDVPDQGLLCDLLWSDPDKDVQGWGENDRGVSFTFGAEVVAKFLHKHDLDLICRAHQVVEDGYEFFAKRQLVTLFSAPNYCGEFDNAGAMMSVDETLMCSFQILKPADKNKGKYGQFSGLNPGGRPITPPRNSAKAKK
Sequence of His6-tagged PP1α_(7–330) Q20R (UniProt P62136 7-330, Q20R) (P62136 7-330 Q20R): as above
Sequence of His6-tagged PP1γ_(7–308) (P36873 7-308): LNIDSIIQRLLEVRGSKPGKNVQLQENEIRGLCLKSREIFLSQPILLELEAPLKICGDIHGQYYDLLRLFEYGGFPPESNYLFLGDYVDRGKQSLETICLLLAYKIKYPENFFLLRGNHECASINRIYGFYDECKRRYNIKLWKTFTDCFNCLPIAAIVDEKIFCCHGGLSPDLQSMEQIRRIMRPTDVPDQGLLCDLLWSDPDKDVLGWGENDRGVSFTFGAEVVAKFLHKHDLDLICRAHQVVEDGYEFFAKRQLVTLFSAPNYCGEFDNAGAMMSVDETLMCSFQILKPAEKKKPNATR
Sequence of mCherry-LacRepressor-NLS-PP1γ (P36873 whole entry): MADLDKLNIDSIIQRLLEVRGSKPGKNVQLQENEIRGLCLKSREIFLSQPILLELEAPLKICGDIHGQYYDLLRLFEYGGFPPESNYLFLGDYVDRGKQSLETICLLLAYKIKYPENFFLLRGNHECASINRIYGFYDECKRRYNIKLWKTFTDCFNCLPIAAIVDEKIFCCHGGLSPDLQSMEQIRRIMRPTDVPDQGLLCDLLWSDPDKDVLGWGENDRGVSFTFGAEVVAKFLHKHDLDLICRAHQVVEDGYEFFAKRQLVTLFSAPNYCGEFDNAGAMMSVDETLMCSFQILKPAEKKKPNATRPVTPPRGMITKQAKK
Sequence of His6-tagged PP1α_(7–330) (P62136 7-330): as the sequence (P62136 7-330 Q20R) above, with R14Q counted along it

On to “RRP1B_(682–727) S702D (from UniProt Q14684) (domain or fragment)”, for which, in test [1], the Kd (usually the equilibrium constant for the complex coming apart) amounted to 329 nM.

As to “PP1γ, endogenous (from UniProt P36873 1-323) (enzyme)”, the PP1γ co-precipitated, percent of WT GFP-RRP1B in test [2] came out at 4.6%; with GFP-RRP1B_(RAxA) (human), 2.1%.

In test [3], “GFP-RRP1B_(S702D) (from UniProt Q14684) (natural protein)” yielded a percent of cells with accumulation at the gene locus of 7%.

“RRP1B_(682–727) F715A (from UniProt Q14684) (domain or fragment)” yielded a Kd in test [1] of 157 nM.

B1: RRP1B_(677–736) (domain or fragment)
chain: TPSSSKKVTFGLNRNMTAEFKKTDKSILVSPTGPSRVAFDPEQKPLHGVLKTPTSSPASS
Molecule B1 displayed a Kd in the test with His6-tagged PP1γ_(7–308) of 22.6 nM. This lies in the double-digit nanomolar range.

B2: RRP1B_(682–723) (domain or fragment)
chain: KKVTFGLNRNMTAEFKKTDKSILVSPTGPSRVAFDPEQKPLH
In the case of B2, the Kd in test [4] amounted to 114 nM.

B3: RRP1B_(657–758) (domain or fragment)
chain: RRAKSSTATHPPGPAVQLNKTPSSSKKVTFGLNRNMTAEFKKTDKSILVSPTGPSRVAFDPEQKPLHGVLKTPTSSPASSPLVAKKPLTTTPRRRPRAMDFF
B3: the equilibrium dissociation constant (Kd) with His6-tagged PP1α_(7–330) is 888 nM; in the test with His6-tagged PP1γ_(7–308), 17.6 nM; with His6-tagged PP1γ_(7–323) it was 40 nM.

B4: RRP1B_(682–727) (domain or fragment)
chain: KKVTFGLNRNMTAEFKKTDKSILVSPTGPSRVAFDPEQKPLHGVLK
B4: binding in test [4] was characterised by a dissociation constant (Kd) of 22.5 nM.
